The source of these data is US6635429B1, “Heterodimeric nuclear receptors proteins, genes encoding same, and usage thereof” (Institut National de la Sante et de la Recherche Medicale, dated 1993).

This data set deals with the molecule itself. The data set is described as follows: cell-based or functional assay.

B1: human RARα1 (a.a. 1 to 462) (receptor)
chain: MASNSSSCPTPGGGHLNGYPVPPYAFFFPPMLGGLSPPGALTTLQHQLPVSGYSTPSPATIETQSSSSEEIVPSPPSPPPLPRIYKPCFVCQDKSSGYHYGVSACEGCKGFFRRSIQKNMVYTCHRDKNCIINKVTRNRCQYCRLQKCFEVGMSKESVRNDRNKKKKEVPKPECSESYTLTPEVGELIEKVRKAHQETFPALCQLGKYTTNNSSEQRVSLDIDLWDKFSELSTKCIIKTVEFAKQLPGFTTLTIADQITLLKAACLDILILRICTRYTPEQDTMTFSDGLTLNRTQMHNAGFGPLTDLVFAFANQLLPLEMDDAETGLLSAICLICGDRQDLEQPDRVDMLQEPLLEALKVYVRKRRPSRPHMFPKMLMKITDLRSISAKGAERVITLKMEIPGSMPPLIQEMLENSEGLDTLSGQPGGGGRDGGGLAPPPGSCSPSLSPSSNRSSPATHSP
As for B1, the “OMPdecase activity of the DR5-URA3 reporter in yeast” value was about 5 fold.
